Reference: US20190177366A1 (published 2019)
Several values for one entry are separate records, joined by “and”; a condition that tells them apart may be missing. Identical values can stand only once. Bridge positions count the residues as written; N and C are the ends. * marks the point of attachment. Fmoc = O=C(OCC1c2ccccc2-c2ccccc21)*; Pentanoyl = CCCCC(=O)*

target: T1, human PCSK9 (proprotein convertase subtilisin/kexin type 9), His-tagged, full-length (human, UniProt A8T644 31-152; Q8NBP7 153-692, limits assumed); test: TR-FRET competition vs EGF(A)-Fc on His-PCSK9
T1 construct: The secreted protein is the prodomain plus the catalytic/Cys-rich part (N-terminus S153) after autocleavage; also called His-PCSK9; NARC-1
T1 sequence (A8T644 31-152 limits assumed, chain 1 of 2): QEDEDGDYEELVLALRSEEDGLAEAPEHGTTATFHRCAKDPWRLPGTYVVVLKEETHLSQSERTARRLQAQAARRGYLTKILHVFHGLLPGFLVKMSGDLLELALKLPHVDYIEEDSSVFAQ
T1 sequence (A8T644 other isoform, or with tags, fused parts or gaps limits assumed, chain 2 of 2): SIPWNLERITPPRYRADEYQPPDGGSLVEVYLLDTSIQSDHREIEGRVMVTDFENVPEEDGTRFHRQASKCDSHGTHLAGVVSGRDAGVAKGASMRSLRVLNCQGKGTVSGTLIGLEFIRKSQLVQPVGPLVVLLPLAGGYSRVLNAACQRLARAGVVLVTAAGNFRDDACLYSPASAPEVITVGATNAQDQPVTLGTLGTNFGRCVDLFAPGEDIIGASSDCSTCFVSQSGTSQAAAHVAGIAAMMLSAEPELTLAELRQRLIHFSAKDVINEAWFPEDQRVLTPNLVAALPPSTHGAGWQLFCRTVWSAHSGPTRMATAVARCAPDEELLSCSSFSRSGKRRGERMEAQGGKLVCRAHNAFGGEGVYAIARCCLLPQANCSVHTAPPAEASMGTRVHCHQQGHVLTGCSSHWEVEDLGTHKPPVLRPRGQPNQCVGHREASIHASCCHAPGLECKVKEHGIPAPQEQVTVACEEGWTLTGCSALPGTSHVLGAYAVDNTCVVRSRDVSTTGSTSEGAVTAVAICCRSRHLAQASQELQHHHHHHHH

Binder	IC50 [µM]
Ac-DLMPWNLVRIGLLR-NH2 [Compound 35]	> 50
Ac-DLMPANLVRIGLLR-NH2 [Compound 41]	> 50
Ac-DLMAWNLVRIGLLR-NH2 [Compound 42]	> 50
Ac-DLAPWNLVRIGLLR-NH2 [Compound 43]	> 50
Ac-DAMPWNLVRIGLLR-NH2 [Compound 44]	> 50
Ac-DLMPWNLVRIGLLA-NH2 [Compound 54]	> 50
Ac-DLMPWNLVRIGALR-NH2 [Compound 56]	> 50
Ac-DLMPWNLVRAGLLR-NH2 [Compound 58]	> 50
Ac-DLMPWNLVAIGLLR-NH2 [Compound 59]	> 50
Ac-DLMPWNLARIGLLR-NH2 [Compound 60]	> 50
Ac-DLMPWNAVRIGLLR-NH2 [Compound 61]	> 50
Ac-DLMPWALVRIGLLR-NH2 [Compound 62]	> 50
Pentanoyl-WNLVRIGLTR-NH2 (SMILES CCCCC(=O)N[C@@H](Cc1c[nH]c2ccccc12)C(=O)N[C@@H](CC(N)=O)C(=O)N[C@@H](CC(C)C)C(=O)N[C@H](C(=O)N[C@@H](CCCNC(=N)N)C(=O)N[C@H](C(=O)NCC(=O)N[C@@H](CC(C)C)C(=O)N[C@H](C(=O)N[C@@H](CCCNC(=N)N)C(N)=O)[C@@H](C)O)[C@@H](C)CC)C(C)C) [Compound 112]	> 50

target: T2, His-tagged, full-length PCSK9 (human, UniProt A8T644 31-152; Q8NBP7 153-692); test: TR-FRET competition; competitor EGF(A)-Fc on His-PCSK9
T2 construct: Target protein of the PCSK9/EGF(A) TR-FRET assay (10 nM); also called His-PCSK9; proprotein convertase subtilisin/kexin type 9
T2 sequence (A8T644 31-152 limits assumed, chain 1 of 2): as the sequence (A8T644 31-152 limits assumed, chain 1 of 2) above
T2 sequence (A8T644 other isoform, or with tags, fused parts or gaps limits assumed, chain 2 of 2): as the sequence (A8T644 other isoform, or with tags, fused parts or gaps limits assumed, chain 2 of 2) above

Binder	IC50
Ac-MCLWNLKRIGSQCEY-NH2 (disulfide 2-13; SMILES CC[C@H](C)[C@@H]1NC(=O)[C@H](CCCNC(=N)N)NC(=O)[C@H](CCCCN)NC(=O)[C@H](CC(C)C)NC(=O)[C@H](CC(N)=O)NC(=O)[C@H](Cc2c[nH]c3ccccc23)NC(=O)[C@H](CC(C)C)NC(=O)[C@@H](NC(=O)[C@H](CCSC)NC(C)=O)CSSC[C@@H](C(=O)N[C@@H](CCC(=O)O)C(=O)N[C@@H](Cc2ccc(O)cc2)C(N)=O)NC(=O)[C@H](CCC(N)=O)NC(=O)[C@H](CO)NC(=O)CNC1=O) [Compound 63]	14.6 µM
Ac-DCLWNLKRIGSQCEY-NH2 (disulfide 2-13; SMILES CC[C@H](C)[C@@H]1NC(=O)[C@H](CCCNC(=N)N)NC(=O)[C@H](CCCCN)NC(=O)[C@H](CC(C)C)NC(=O)[C@H](CC(N)=O)NC(=O)[C@H](Cc2c[nH]c3ccccc23)NC(=O)[C@H](CC(C)C)NC(=O)[C@@H](NC(=O)[C@H](CC(=O)O)NC(C)=O)CSSC[C@@H](C(=O)N[C@@H](CCC(=O)O)C(=O)N[C@@H](Cc2ccc(O)cc2)C(N)=O)NC(=O)[C@H](CCC(N)=O)NC(=O)[C@H](CO)NC(=O)CNC1=O) [Compound 64]	> 50 µM
Ac-WCLWNLKRIGSQCEY-NH2 (disulfide 2-13; SMILES CC[C@H](C)[C@@H]1NC(=O)[C@H](CCCNC(=N)N)NC(=O)[C@H](CCCCN)NC(=O)[C@H](CC(C)C)NC(=O)[C@H](CC(N)=O)NC(=O)[C@H](Cc2c[nH]c3ccccc23)NC(=O)[C@H](CC(C)C)NC(=O)[C@@H](NC(=O)[C@H](Cc2c[nH]c3ccccc23)NC(C)=O)CSSC[C@@H](C(=O)N[C@@H](CCC(=O)O)C(=O)N[C@@H](Cc2ccc(O)cc2)C(N)=O)NC(=O)[C@H](CCC(N)=O)NC(=O)[C@H](CO)NC(=O)CNC1=O) [Compound 65]	> 50 µM
Ac-FCLWNLKRIGSQCEY-NH2 (disulfide 2-13; SMILES CC[C@H](C)[C@@H]1NC(=O)[C@H](CCCNC(=N)N)NC(=O)[C@H](CCCCN)NC(=O)[C@H](CC(C)C)NC(=O)[C@H](CC(N)=O)NC(=O)[C@H](Cc2c[nH]c3ccccc23)NC(=O)[C@H](CC(C)C)NC(=O)[C@@H](NC(=O)[C@H](Cc2ccccc2)NC(C)=O)CSSC[C@@H](C(=O)N[C@@H](CCC(=O)O)C(=O)N[C@@H](Cc2ccc(O)cc2)C(N)=O)NC(=O)[C@H](CCC(N)=O)NC(=O)[C@H](CO)NC(=O)CNC1=O) [Compound 95]	> 50 µM
H-WCLWNLKRIGSQCWF-NH2 (disulfide 2-13; SMILES CC[C@H](C)[C@@H]1NC(=O)[C@H](CCCNC(=N)N)NC(=O)[C@H](CCCCN)NC(=O)[C@H](CC(C)C)NC(=O)[C@H](CC(N)=O)NC(=O)[C@H](Cc2c[nH]c3ccccc23)NC(=O)[C@H](CC(C)C)NC(=O)[C@@H](NC(=O)[C@@H](N)Cc2c[nH]c3ccccc23)CSSC[C@@H](C(=O)N[C@@H](Cc2c[nH]c3ccccc23)C(=O)N[C@@H](Cc2ccccc2)C(N)=O)NC(=O)[C@H](CCC(N)=O)NC(=O)[C@H](CO)NC(=O)CNC1=O) [Compound 89]	6.9 µM
Ac-GCLWNLKRIGSQCWF-NH2 (disulfide 2-13; SMILES CC[C@H](C)[C@@H]1NC(=O)[C@H](CCCNC(=N)N)NC(=O)[C@H](CCCCN)NC(=O)[C@H](CC(C)C)NC(=O)[C@H](CC(N)=O)NC(=O)[C@H](Cc2c[nH]c3ccccc23)NC(=O)[C@H](CC(C)C)NC(=O)[C@@H](NC(=O)CNC(C)=O)CSSC[C@@H](C(=O)N[C@@H](Cc2c[nH]c3ccccc23)C(=O)N[C@@H](Cc2ccccc2)C(N)=O)NC(=O)[C@H](CCC(N)=O)NC(=O)[C@H](CO)NC(=O)CNC1=O) [Compound 87]	> 50 µM
Ac-FCLWNLARIGSQCWF-NH2 (disulfide 2-13; SMILES CC[C@H](C)[C@@H]1NC(=O)[C@H](CCCNC(=N)N)NC(=O)[C@H](C)NC(=O)[C@H](CC(C)C)NC(=O)[C@H](CC(N)=O)NC(=O)[C@H](Cc2c[nH]c3ccccc23)NC(=O)[C@H](CC(C)C)NC(=O)[C@@H](NC(=O)[C@H](Cc2ccccc2)NC(C)=O)CSSC[C@@H](C(=O)N[C@@H](Cc2c[nH]c3ccccc23)C(=O)N[C@@H](Cc2ccccc2)C(N)=O)NC(=O)[C@H](CCC(N)=O)NC(=O)[C@H](CO)NC(=O)CNC1=O) [Compound 88]	17.9 µM
Ac-WCLWNLKRIGSQCWF-OH (disulfide 2-13; SMILES CC[C@H](C)[C@@H]1NC(=O)[C@H](CCCNC(=N)N)NC(=O)[C@H](CCCCN)NC(=O)[C@H](CC(C)C)NC(=O)[C@H](CC(N)=O)NC(=O)[C@H](Cc2c[nH]c3ccccc23)NC(=O)[C@H](CC(C)C)NC(=O)[C@@H](NC(=O)[C@H](Cc2c[nH]c3ccccc23)NC(C)=O)CSSC[C@@H](C(=O)N[C@@H](Cc2c[nH]c3ccccc23)C(=O)N[C@@H](Cc2ccccc2)C(=O)O)NC(=O)[C@H](CCC(N)=O)NC(=O)[C@H](CO)NC(=O)CNC1=O) [Compound 90]	29.2 µM
H-WCLWNLKRIGSQCWF-OH (disulfide 2-13; SMILES CC[C@H](C)[C@@H]1NC(=O)[C@H](CCCNC(=N)N)NC(=O)[C@H](CCCCN)NC(=O)[C@H](CC(C)C)NC(=O)[C@H](CC(N)=O)NC(=O)[C@H](Cc2c[nH]c3ccccc23)NC(=O)[C@H](CC(C)C)NC(=O)[C@@H](NC(=O)[C@@H](N)Cc2c[nH]c3ccccc23)CSSC[C@@H](C(=O)N[C@@H](Cc2c[nH]c3ccccc23)C(=O)N[C@@H](Cc2ccccc2)C(=O)O)NC(=O)[C@H](CCC(N)=O)NC(=O)[C@H](CO)NC(=O)CNC1=O) [Compound 66]	31.3 µM
Ac-CWNLKRIGSQGC-NH2 (disulfide 1-12 (inferred)) [Compound 21]	> 50 µM
Ac-GSGCWNLKRIGSQGC-NH2 (disulfide 4-15 (inferred)) [Compound 22]	42 µM and > 50 µM
Ac-GSGCWNLKRIGSQGCW-NH2 (disulfide 4-15 (inferred)) [Compound 40]	5.96 µM
Ac-CWNLKRIGSQGCW-NH2 (disulfide 1-12 (inferred)) [Compound 39]	> 50 µM
Fmoc-GSGCWNLKRIGSQGC-NH2 (disulfide 4-15; SMILES CC[C@H](C)[C@@H]1NC(=O)[C@H](CCCNC(=N)N)NC(=O)[C@H](CCCCN)NC(=O)[C@H](CC(C)C)NC(=O)[C@H](CC(N)=O)NC(=O)[C@H](Cc2c[nH]c3ccccc23)NC(=O)[C@@H](NC(=O)CNC(=O)[C@H](CO)NC(=O)CNC(=O)OCC2c3ccccc3-c3ccccc32)CSSC[C@@H](C(N)=O)NC(=O)CNC(=O)[C@H](CCC(N)=O)NC(=O)[C@H](CO)NC(=O)CNC1=O) [Compound 98]	37.6 µM
